Where two headings read alike, the source gives them in different places.
Key:
[1] = tested on: Inactivated H5N1 avian influenza virus (whole virion) (Avian influenza virus H5N1 (Scotland/59))
[2] = tested on: Inactivated H1N1 influenza virus (whole virion) (Avian influenza virus H1N1 (strain not stated)); conditions: 5'-biotin; scale: ohm
[3] = tested on: Inactivated H2N2 influenza virus (whole virion) (Avian influenza virus H2N2 (strain not stated)); conditions: 5'-biotin; scale: ohm
[4] = tested on: Inactivated H7N2 avian influenza virus (whole virion) (Avian influenza virus H7N2 (strain not stated)); conditions: 5'-biotin; scale: ohm
[5] = tested on: Inactivated H5N1 avian influenza virus (whole virion) (Avian influenza virus H5N1 (Scotland/59)); assay: SPR; conditions: 5'-biotin; cited from earlier work

Sequence	binding signal (ohm (impedance increase)) [1]	binding signal [2]	binding signal [3]	binding signal [4]	binding signal (ohm (impedance increase)) ([1]; 5'-biotin)	Kd [5] [nM]
CCGAATTCGAAGGACAAGAGGCGAAAAGATTTAAAGTAATCAAAGACTGAGCAACTCTTATCTTTTATGCTACGTCCCGC [control sequence (non-target aptamer)]	282	–	–	–	–	–
GTGTGCATGGATAGCACGTAACGGTGTAGTAGATACGTGCGGGTAGGAAGAAAGGGAAATAGTTGTCCTGTTG [H5N1 aptamer]	–	-2000	-2000	-2000	61000	4.65

— article PMC4570336
